How the values were obtained:
HeLa Kyoto [1] = test: solubility in G1/S (NP-40 vs SDS abundance) (log2 ratio); higher = more soluble; details: cell cycle stage: G1/S
HeLa Kyoto [2] = test: melting temperature (median over replicates), in situ; higher = more thermally stable
HeLa Kyoto [3] = test: solubility change mitosis vs G1/S (difference of NP-40 vs SDS log2 ratios) (log2 ratio difference); higher = more soluble in mitosis
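Wherever melting temperature (median over replicates), in situ is given: HeLa Kyoto cells synchronized by double thymidine or nocodazole block, proteins quantified by TMT10plex mass spectrometry, three independent biological replicates.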
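Wherever solubility change mitosis vs G1/S (difference of NP-40 vs SDS log2 ratios) is given: synchronized HeLa Kyoto cells (double thymidine block for G1/S, nocodazole release for mitosis), protein amounts in NP-40 versus SDS lysates quantified by mass spectrometry, three biological replicates.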
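Wherever solubility in G1/S (NP-40 vs SDS abundance) is given: HeLa Kyoto cells arrested at G1/S by double thymidine block, proteins quantified by TMT10plex mass spectrometry in mild NP-40 versus SDS extracts, three biological replicates.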

Substance	solubility in G1/S (log2) (HeLa Kyoto [1])	melting temperature (HeLa Kyoto [2]; cell cycle stage: G1/S) [°C]	solubility change mitosis (log2) (HeLa Kyoto [3])	melting temperature (HeLa Kyoto [2]; cell cycle stage: mitosis) [°C]
MTTTTTFKGVDPNSRNSSRVLRPPGGGSNFSLGFDEPTEQPVRKNKMASNIFGTPEENQASWAKSAGAKSSGGREDLESSGLQRRNSSEASSGDFLDLKGEGDIHENVDTDLPGSLGQSEEKPVPAAPVPSPVAPAPVPSRRNPPGGKSSLVLG [HN1]	-0.248	52.1	0.268	–
RERE	-0.116	–	0.148	50.7
MSEAMDQPAGGPGNPRPGEGDDGSMEPGTCQELLHRLRELEAENSALAQANENQRETYERCLDEVANHVVQALLNQKDLREECIKLKKRVFDLERQNQMLSALFQQKLQLTTGSLPQIPLTPLQPPSEPPASPSLSSTEGPAAPLPLGHCAGQREVCWEQQLRPGGPGPPAAPPPALDALSPFLRKKAQILEVLRALEETDPLLLCSPATPWRPPGQGPGSPEPINGELCGPPQPEPSPWAPCLLLGPGNLGGLLHWERLLGGLGGEEDTGRPWGPSRGPPQAQGTSSGPNCAPGSSSSSSSDEAGDPNEAPSPDTLLGALARRQLNLGQLLEDTESYLQAFLAGAAGPLNGDHPGPGQSSSPDQAPPQLSKSKGLPKSAWGGGTPEAHRPGFGATSEGQGPLPFLSMFMGAGDAPLGSRPGHPHSSSQVKSKLQIGPPSPGEAQGPLLPSPARGLKFLKLPPTSEKSPSPGGPQLSPQLPRNSRIPCRNSGSDGSPSPLLARRGLGGGELSPEGAQGLPTSPSPCYTTPDSTQLRPPQSALSTTLSPGPVVSPCYENILDLSRSTFRGPSPEPPPSPLQVPTYPQLTLEVPQAPEVLRSPGVPPSPCLPESYPYGSPQEKSLDKAGSESPHPGRRTPGNSSKKPSQGSGRRPGDPGSTPLRDRLAALGKLKTGPEGALGSEKNGVPARPGTEKTRGPGKSGESAGDMVPSIHRPLEQLEAKGGIRGAVALGTNSLKQQEPGLMGDPGARVYSSHSMGARVDLEPVSPRSCLTKVELAKSRLAGALCPQVPRTPAKVPTSAPSLGKPNKSPHSSPTKLPSKSPTKVVPRPGAPLVTKESPKPDKGKGPPWADCGSTTAQSTPLVPGPTDPSQGPEGLAPHSAIEEKVMKGIEENVLRLQGQERAPGAEVKHRNTSSIASWFGLKKSKLPALNRRTEATKNKEGAGGGSPLRREVKMEARKLEAESLNISKLMAKAEDLRRALEEEKAYLSSRARPRPGGPAPGPNTGLGQVQGQLAGMYQGADTFMQQLLNRVDGKELPSKSWREPKPEYGDFQPVSSDPKSPWPACGPRNGLVGPLQGCGKPPGKPSSEPGRREEMPSEDSLAEPVPTSHFTACGSLTRTLDSGIGTFPPPDHGSSGTPSKNLPKTKPPRLDPPPGVPPARPPPLTKVPRRAHTLEREVPGIEELLVSGRHPSMPAFPALLPAAPGHRGHETCPDDPCEDPGPTPPVQLAKNWTFPNTRAAGSSSDPLMCPPRQLEGLPRTPMALPVDRKRSQEPSRPSPTPQGPPFGGSRTPSTSDMAEEGRVASGGPPGLETSESLSDSLYDSLSSCGSQG [NCKAP5L]	0.0838	–	-0.128	50.4
MATKDPTAVERANLLNMAKLSIKGLIESALSFGRTLDSDYPPLQQFFVVMEHCLKHGLKVRKSFLSYNKTIWGPLELVEKLYPEAEEIGASVRDLPGLKTPLGRARAWLRLALMQKKMADYLRCLIIQRDLLSEFYEYHALMMEEEGAVIVGLLVGLNVIDANLCVKGEDLDSQVGVIDFSMYLKNEEDIGNKERNVQIAAILDQKNYVEELNRQLNSTVSSLHSRVDSLEKSNTKLIEELAIAKNNIIKLQEENHQLRSENKLILMKTQQHLEVTKVDVETELQTYKHSRQGLDEMYNEARRQLRDESQLRQDVENELAVQVSMKHEIELAMKLLEKDIHEKQDTLIGLRQQLEEVKAINIEMYQKLQGSEDGLKEKNEIIARLEEKTNKITAAMRQLEQRLQQAEKAQMEAEDEDEKYLQECLSKSDSLQKQISQKEKQLVQLETDLKIEKEWRQTLQEDLQKEKDALSHLRNETQQIISLKKEFLNLQDENQQLKKIYHEQEQALQELGNKLSESKLKIEDIKEANKALQGLVWLKDKEATHCKLCEKEFSLSKRKHHCRNCGEIFCNACSDNELPLPSSPKPVRVCDSCHALLIQRCSSNLP [RUFY2]	-0.00835	49.1	-0.122	49.3
MALVRGAEPAAGPSRWLPTHVQVTVLRARGLRGKSSGAGSTSDAYTVIQVGREKYSTSVVEKTHGCPEWREECSFELPPGALDGLLRAQEADAGPAPWAASSAAACELVLTTMHRSLIGVDKFLGQATVALDEVFGAGRAQHTQWYKLHSKPGKKEKERGEIEVTIQFTRNNLSASMFDLSMKDKPRSPFSKIRDKMKGKKKYDLESASAILPSSAIEDPDLGSLGKMGKAKGFFLRNKLRKSSLTQSNTSLGSDSTLSSASGSLAYQGPGAELLTRSPSRSSWLSTEGGRDSAQSPKLFTHKRTYSDEANQMRVAPPRALLDLQGHLDAASRSSLCVNGSHIYNEEPQGPVRHRSSISGSLPSSGSLQAVSSRFSEEGPRSTDDTWPRGSRSNSSSEAVLGQEELSAQAKVLAPGASHPGEEEGARLPEGKPVQVATPIVASSEAVAEKEGARKEERKPRMGLFHHHHQGLSRSELGRRSSLGEKGGPILGASPHHSSSGEEKAKSSWFGLREAKDPTQKPSPHPVKPLSAAPVEGSPDRKQSRSSLSIALSSGLEKLKTVTSGSIQPVTQAPQAGQMVDTKRLKDSAVLDQSAKYYHLTHDELISLLLQRERELSQRDEHVQELESYIDRLLVRIMETSPTLLQIPPGPPK [RAB11FIP5]	0.0739	50.1	-0.217	49.3
MFHGIPATPGIGAPGNKPELYEEVKLYKNAREREKYDNMAELFAVVKTMQALEKAYIKDCVSPSEYTAACSRLLVQYKAAFRQVQGSEISSIDEFCRKFRLDCPLAMERIKEDRPITIKDDKGNLNRCIADVVSLFITVMDKLRLEIRAMDEIQPDLRELMETMHRMSHLPPDFEGRQTVSQWLQTLSGMSASDELDDSQVRQMLFDLESAYNAFNRFLHA [VPS28]	0.19	51.5	0.014	–
MAAEEKDPLSYFAAYGSSSSGSSDEEDNIEPEETSRRTPDPAKSAGGCRNKAEKRLPGPDELFRSVTRPAFLYNPLNKQIDWERHVVKAPEEPPKEFKIWKSNYVPPPETYTTEKKPPPPELDMAIKWSNIYEDNGDDAPQNAKKARLLPEGEETLESDDEKDEHTSKKRKVEPGEPAKKKK [C1ORF52]	0.074	54.3	0.413	52.5
MISAPDVVAFTKEEEYEEEPYNEPALPEEYSVPLFPFASQGANPWSKLSGAKFSRDFILISEFSEQVGPQPLLTIPNDTKVFGTFDLNYFSLRIMSVDYQASFVGHPPGSAYPKLNFVEDSKVVLGDSKEGAFAYVHHLTLYDLEARGFVRPFCMAYISADQHKIMQQFQELSAEFSRASECLKTGNRKAFAGELEKKLKDLDYTRTVLHTETEIQKKANDKGFYSSQAIEKANELASVEKSIIEHQDLLKQIRSYPHRKLKGHDLCPGEMEHIQDQASQASTTSNPDESADTDLYTCRPAYTPKLIKAKSTKCFDKKLKTLEELCDTEYFTQTLAQLSHIEHMFRGDLCYLLTSQIDRALLKQQHITNFLFEDFVEVDDRMVEKQESIPSKPSQDRPPSSSLEECPIPKVLISVGSYKSSVESVLIKMEQELGDEEYKEVEVTELSSFDPQENLDYLDMDMKGSISSGESIEVLGTEKSTSVLSKSDSQASLTVPLSPQVVRSKAVSHRTISEDSIEVLSTCPSEALIPDDFKASYPSAINEEESYPDGNEGAIRFQASISPPELGETEEGSIENTPSQIDSSCCIGKESDGQLVLPSTPAHTHSDEDGVVSSPPQRHRQKDQGFRVDFSVENANPSSRDNSCEGFPAYELDPSHLLASRDISKTSLDNYSDTTSYVSSVASTSSDRIPSAYPAGLSSDRHKKRAGQNALKFIRQYPFAHPAIYSLLSGRTLVVLGEDEAIVRKLVTALAIFVPSYGCYAKPVKHWASSPLHIMDFQKWKLIGLQRVASPAGAGTLHALSRYSRYTSILDLDNKTLRCPLYRGTLVPRLADHRTQIKRGSTYYLHVQSMLTQLCSKAFLYTFCHHLHLPTHDKETEELVASRQMSFLKLTLGLVNEDVRVVQYLAELLKLHYMQESPGTSHPMLRFDYVPSFLYKI [SMCR8]	-0.0823	–	0.0252	–
MSISLSSLILLPIWINMAQIQQGGPDEKEKTTALKDLLSRIDLDELMKKDEPPLDFPDTLEGFEYAFNEKGQLRHIKTGEPFVFNYREDLHRWNQKRYEALGEIITKYVYELLEKDCNLKKVSIPVDATESEPKSFIFMSEDALTNPQKLMVLIHGSGVVRAGQWARRLIINEDLDSGTQIPFIKRAVAEGYGVIVLNPNENYIEVEKPKIHVQSSSDSSDEPAEKRERKDKVSKETKKRRDFYEKYRNPQREKEMMQLYIRENGSPEEHAIYVWDHFIAQAAAENVFFVAHSYGGLAFVELMIQREADVKNKVTAVALTDSVHNVWHQEAGKTIREWMRENCCNWVSSSEPLDTSVESMLPDCPRVSAGTDRHELTSWKSFPSIFKFFTEASEAKTSSLKPAVTRRSHRIKHEEL [FAM172A]	0.202	–	-0.00146	–
MAALKEDRSYGLSCGRVSDGSKVSVFHVKLTDSALRAFESYRARQDSVSLRPSIRFQGSQGHISIPQPDCPAEARTFSFYLSNIGRDNPQGSFDCIQQYVSSHGEVHLDCLGSIQDKITVCATDDSYQKARQSMAQAEEETRSRSAIVIKAGGRYLGKKVQFRKPAPGATDAVPSRKRATPINLASAIRKSGASAVSGGSGVSQRPFRDRVLHLLALRPYRKAELLLRLQKDGLTQADKDALDGLLQQVANMSAKDGTCTLQDCMYKDVQKDWPGYSEGDQQLLKRVLVRKLCQPQSTGSLLGDPAASSPPGERGRSASPPQKRLQPPDFIDPLANKKPRISHFTQRAQPAVNGKLGVPNGREALLPTPGPPASTDTLSSSTHLPPRLEPPRAHDPLADVSNDLGHSGRDCEHGEAAAPAPTVRLGLPLLTDCAQPSRPHGSPSRSKPKKKSKKHKDKERAAEDKPRAQLPDCAPATHATPGAPADTPGLNGTCSVSSVPTSTSETPDYLLKYAAISSSEQRQSYKNDFNAEYSEYRDLHARIERITRRFTQLDAQLRQLSQGSEEYETTRGQILQEYRKIKKTNTNYSQEKHRCEYLHSKLAHIKRLIAEYDQRQLQAWP	-0.0524	–	0.218	–
MAATLILEPAGRCCWDEPVRIAVRGLAPEQPVTLRASLRDEKGALFQAHARYRADTLGELDLERAPALGGSFAGLEPMGLLWALEPEKPLVRLVKRDVRTPLAVELEVLDGHDPDPGRLLCRVRHERYFLPPGVRREPVRAGRVRGTLFLPPEPGPFPGIVDMFGTGGGLLEYRASLLAGKGFAVMALAYYNYEDLPKTMETLHLEYFEEAVNYLLSHPEVKGPGVGLLGISKGGELCLSMASFLKGITAAVVINGSVANVGGTLRYKGETLPPVGVNRNRIKVTKDGYADIVDVLNSPLEGPDQKSFIPVERAESTFLFLVGQDDHNWKSEFYANEACKRLQAHGRRKPQIICYPETGHYIEPPYFPLCRASLHALVGSPIIWGGEPRAHAMAQVDAWKQLQTFFHKHLGGHEGTIPSKV [ACOT1]	0.138	–	-0.000552	–
